These results are taken from US20230331868A1 (Seagen, published 2023).

Assay [1] addresses T1, bovine submaxillary mucin (bovine).
T1 construct: Natural mucin preparation; also called BSM
The assay can be described thus: ELISA on BSM-coated wells; periodate-sensitive signal. Here is the method:
(§1) For BSM ELISA analysis, antibodies were screened over a concentration range of 0 to 100 nM on bovine submaxillary mucin (BSM) coated wells. A subset of wells were treated with mild periodate solution before antibody binding to remove the side chain on terminal sialic acid residues (destroying the STn antigen). Optical densities of periodate and non-periodate-treated wells were determined and log transformed then fit to a nonlinear regression model to obtain a dose response curve. Optical density values obtained from periodate-treated wells were subtracted from non-periodate treated wells to obtain a periodate-sensitive STn binding curve and corresponding EC₅₀ values.

The target in assay [2] is T1, bovine submaxillary mucin. Nature of the assay: ELISA on BSM-coated wells; antibody from one liter production. How it is done:
as §1
Based on the results of characterization experiments, two antibodies from each clone group were selected for one liter expression and resulting antibodies were tested again according to the same procedures (see results presented in the following Table).

B1: Humanized 2G12-2B2 VL2,VH2 (antibody, V domains shown)
VH: QVQLVQSGAEVKKPGASVKISCKASGYTFTDHAIHWVRQAPGQGLEWIGYFSPGNDDIKYNEKFRGRVTLTADKSSSTAYMELRSLRSDDTAVYFCKRSLSTPYWGQGTLVTVSS
VL: DIVMTQSPDSLAVSLGERVTMSCKSSQSLLNRGNHKNYLTWYQQKPGQPPKLLIYWASTRESGVPDRFSGSGSGTDFTLTISSLQAEDVAVYYCQNDYTYPYTFGQGTKVEIK
notes: also called Hu2G12-2B2,L2H2; Hu2G12-2B2 L2H2
Consider B1, for which the half-maximal effective concentration (EC50) came to 2.9 nM in assay [1] and 1.82 nM in assay [2].

B2: Humanized 3F1 VL1,VH1 (antibody, V domains shown)
VH: QVQLVQSGAEVKKPGASVKVSCKASGYTFTDHAIHWVRQAPGQGLEWMGYISPGNGDIKYNEKFKDRVTMTADKSSSTAYMQLRSLRSDDTAVYFCKRSLLALDYWGQGTLVTVSS
VL: DIQMTQSPSSLSASVGDRVTITCKASQDVGTNIAWYQQKPGKAPKVLIYSASTRHTGVPSRFSGSGSGTDFTLTISSLQPEDFATYFCQQYSSFPLTFGQGTKVEIK
notes: also called Hu3F1,L1H1; Hu3F1 L1H1
In the case of B2, the EC50 in assay [1] is 1.8 nM; in assay [2], 0.86 nM.
